Assay results as given in patent US6362395.

Target: calmodulin (unlabeled, as used in the gel mobility-shift and kinase assays of Example 2) (UniProt P04353)

lily CCaMK truncation mutant 1-356
Ca2+/calmodulin-dependent kinase activity (histone IIAS phosphorylation): retained Ca2+/calmodulin-dependent kinase activity at a substantially reduced level
